Laboratory results taken from PMC10397247.

Assays:
4H3631-bN = target: T1, 4H3631-bN; assay: two-hybrid library CCNG1;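 further: natural log of median RNA to DNA barcode read ratio; higher means stronger binding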
T1 chain: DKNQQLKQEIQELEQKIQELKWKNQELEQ

4H570-bN = target: T2, 4H570-bN; assay: two-hybrid library CCNG1;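 further: natural log of median RNA to DNA barcode read ratio; higher means stronger binding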
T2 chain: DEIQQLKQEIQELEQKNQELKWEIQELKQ

4H3414-bN = target: T3, 4H3414-bN; assay: two-hybrid library CCNG1;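 further: natural log of median RNA to DNA barcode read ratio; higher means stronger binding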
T3 chain: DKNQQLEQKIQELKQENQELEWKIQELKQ

4H584-bN = target: T4, 4H584-bN; assay: two-hybrid library CCNG1;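 further: natural log of median RNA to DNA barcode read ratio; higher means stronger binding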
T4 chain: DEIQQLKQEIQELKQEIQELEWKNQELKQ

4H906-bN = target: T5, 4H906-bN; assay: two-hybrid library CCNG1
T5 chain: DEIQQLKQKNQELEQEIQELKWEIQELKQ

4H850-bN = target: T6, 4H850-bN; assay: two-hybrid library CCNG1
T6 chain: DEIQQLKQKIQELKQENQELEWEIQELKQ

4H3817-bN = target: T7, 4H3817-bN; assay: two-hybrid library CCNG1
T7 chain: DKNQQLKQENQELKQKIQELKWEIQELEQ

4H3638-bN = target: T8, 4H3638-bN; assay: two-hybrid library CCNG1
T8 chain: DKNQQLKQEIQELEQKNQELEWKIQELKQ

4H3172-bN = target: T9, 4H3172-bN; assay: two-hybrid library CCNG1
T9 chain: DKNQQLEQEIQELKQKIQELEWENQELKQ

4H3974-bN = target: T10, 4H3974-bN; assay: two-hybrid library CCNG1
T10 chain: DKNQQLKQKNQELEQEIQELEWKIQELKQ

4H619-bN = target: T11, 4H619-bN; assay: two-hybrid library CCNG1
T11 chain: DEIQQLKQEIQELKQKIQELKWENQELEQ

4H932-bA = target: T12, 4H932-bA; assay: two-hybrid library CCNG1
T12 chain: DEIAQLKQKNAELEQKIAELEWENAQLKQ

4H730-bA = target: T13, 4H730-bA; assay: two-hybrid library CCNG1
T13 chain: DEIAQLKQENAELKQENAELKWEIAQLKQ

4H796-bA = target: T14, 4H796-bA; assay: two-hybrid library CCNG1
T14 chain: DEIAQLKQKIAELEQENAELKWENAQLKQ

4H56-bA = target: T15, 4H56-bA; assay: two-hybrid library CCNG1
T15 chain: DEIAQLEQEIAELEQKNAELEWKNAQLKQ

P7SHb = target: T16, P7SHb; assay: two-hybrid library CCNG1
T16 chain: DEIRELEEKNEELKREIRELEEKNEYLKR

4H949-bA = target: T17, 4H949-bA; assay: two-hybrid library CCNG1
T17 chain: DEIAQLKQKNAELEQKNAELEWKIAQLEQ

P2-AA-1HAA-D = target: T18, P2-AA-1HAA-D; assay: two-hybrid library CCmax; conditions: mean of both orientations
T18 chain: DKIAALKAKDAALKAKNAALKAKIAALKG

P2-AA = target: T19, P2-AA; assay: two-hybrid library CCmax; conditions: mean of both orientations
T19 chain: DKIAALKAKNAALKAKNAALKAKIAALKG

P2-AA-1HAA-V = target: T20, P2-AA-1HAA-V; assay: two-hybrid library CCmax; conditions: mean of both orientations
T20 chain: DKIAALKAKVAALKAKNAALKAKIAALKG

P2-AA-1HAA-E = target: T21, P2-AA-1HAA-E; assay: two-hybrid library CCmax; conditions: mean of both orientations
T21 chain: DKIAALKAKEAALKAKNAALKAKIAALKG

P2-AA-1HAA-R = target: T22, P2-AA-1HAA-R; assay: two-hybrid library CCmax; conditions: mean of both orientations
T22 chain: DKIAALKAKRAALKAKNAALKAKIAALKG

P2-AA-1HAA-T = target: T23, P2-AA-1HAA-T; assay: two-hybrid library CCmax; conditions: mean of both orientations
T23 chain: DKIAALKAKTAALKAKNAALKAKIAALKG

P2-AA-1HAA-I = target: T24, P2-AA-1HAA-I; assay: two-hybrid library CCmax; conditions: mean of both orientations
T24 chain: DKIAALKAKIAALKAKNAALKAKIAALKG

P9SHb = target: T25, P9SHb; assay: two-hybrid library CCNG1
T25 chain: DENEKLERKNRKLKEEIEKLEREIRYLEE

P8SHb = target: T26, P8SHb; assay: two-hybrid library CCNG1
T26 chain: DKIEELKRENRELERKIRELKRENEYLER

DKNQQLEQEIQELKQKIQELEWENQELKQ [4H3172-bN] was tested, and the interaction score (4H3631-bN) was 1.27, the interaction score (4H570-bN) was -0.602 and the interaction score (4H3414-bN) was 0.0803. The interaction score (4H584-bN) was -0.681, the interaction score (4H906-bN) was -1.5 and the interaction score (4H850-bN) was -0.789. For the same binder, the interaction score (4H3817-bN) was -0.519, the interaction score (4H3638-bN) was -0.362 and the interaction score (4H3172-bN) was -0.109. It also gave an interaction score (4H3974-bN) of -0.234 and an interaction score (4H619-bN) of 0.271.

Work on DEIAQLEQEIAELEQKNAELEWKNAQLKQ [4H56-bA] yielded an interaction score (4H932-bA) of -0.898, an interaction score (4H730-bA) of -1.15 and an interaction score (4H796-bA) of -0.775. It also gave an interaction score (4H56-bA) of -0.593, an interaction score (P7SHb) of 0.584 and an interaction score (4H949-bA) of -0.628.

Binder DEIAALEAEYAALEAENAALEAEIAALEG [P1-AA-1HAA-Y] has an interaction score (P2-AA-1HAA-D) of 0.371, an interaction score (P2-AA) of 2.07 and an interaction score (P2-AA-1HAA-V) of 1.99. The interaction score (P2-AA-1HAA-E) was 0.866, the interaction score (P2-AA-1HAA-R) was 1.52 and the interaction score (P2-AA-1HAA-T) was 1.95. It also gave an interaction score (P2-AA-1HAA-I) of 2.07.

DEIRELEEKNEELKREIRELEEKNEYLKR [P7SHb] gave an interaction score (P9SHb) of 0.021, an interaction score (P8SHb) of 1.18 and an interaction score (P7SHb) of -0.618.
